19 molecules from patent publication US20120129778A1 (GlaxoSmithKline, published 2012) can be followed below.

Test [1] deals with human TGF-β receptor type II on human cells (A549, SBE-bla HEK 293T) (human, UniProt P37173 23-567). The test is described as follows: cell-based or functional assay.
The target of test [2] is T1, recombinant human TGF-β RII/Fc chimera protein (R&D systems, cat no. 341-BR) (human, UniProt P37173 23-166).
T1 construct: extracellular domain; Bought protein, expressed in the mouse myeloma line NS0; also called hTGFb-RII/Fc; hTFGβ-RII-Fc; not shown: Fc region of human IgG1
T1 sequence (P37173 23-166, change not shown): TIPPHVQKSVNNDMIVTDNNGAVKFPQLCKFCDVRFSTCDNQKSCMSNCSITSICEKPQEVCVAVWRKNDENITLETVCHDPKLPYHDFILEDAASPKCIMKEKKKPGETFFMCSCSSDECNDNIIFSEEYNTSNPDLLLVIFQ
The test can be described thus: ELISA, plate coated with human TGF-β RII/Fc, dAb supernatant, anti-FLAG detection. The protocol: dAb clones that bound human TGF-β RII/Fc were identified by an ELISA. 96-well MAXISORP™ immuno plates (Nunc, Denmark) were coated with human TGF-β RII/Fc overnight at 4° C. The wells were washed three times with PBST and then blocked with 1% TWEEN™ in PBS (1% TPBS) for 1 hour at room temperature. The block was removed and a 1:1 mixture of 1% TPBS and dAb supernatant was added for 1 hour at room temperature. The plate was washed with three times with PBST and the detection antibody (Monoclonal anti-FLAG M2-peroxidase antibody, Sigma-aldrich, UK) was added and incubated for 1 hour at room temperature. The plates were developed using a colourimetric substrate (SUREBLUE™ 1-component TMB Microwell Peroxidase solution, KPL, Maryland, USA) and the optical density (OD) measured at […], the OD₄₅₀ being proportional to the amount of bound detection antibody.
For orientation: ELISA stands for enzyme-linked immunosorbent assay.

The target of test [3] is T1, recombinant human TGF-β RII/Fc chimera …. The test is described as follows: SPR (BIACORE 3000), hTGFb-RII/Fc coupled to a CM5 chip, co-inject; injection 2 = mixture of DOM23h-437-6 (100 nM) and DOM23h-271-3 (500 nM) on a surface saturated with DOM23h-437-6. The procedure: (§1) The SPR experiments were performed on a BIACORE™ 3000 instrument (BIACORE™, GE […]®, Sweden). hTGFb-RII/Fc antigen at 50 ug/ml in 10 mM sodium acetate buffer, pH 4 (BIACORE™, GE […]®, Sweden) was coupled to a CM5 sensor chip (BIACORE™, GE […]®, Sweden), according to the manufacturer's instructions. Approximately 5500 RUs of antigen were coupled. A blank flow cell was used as a reference. Purified dAbs were diluted in HBS-EP buffer (BIACORE™, GE […]®, Sweden) and flowed over the antigen-coated and blank flow cells at a rate of 30 μl/minute using the co-inject command. The coinject command allows the injection of a second sample immediately after the first one. The first injection consisted of a single dAb and the second injection consisted of a mixture of the first dAb and a second dAb. All dAbs were used at concentrations high enough to bind the antigen surface with maximal capacity. If the maximal binding capacity of the antigen surface by the first dAb can be exceeded by injecting the mixture of the two dAbs, the second dAb is likely to […] a different binding site or epitope on the antigen. If no further binding is observed following the second injection, then the two dAbs are likely to compete for the same antigen binding site. […]

Test [4] has the same target. The test is described as follows: SPR (BIACORE 3000), hTGFb-RII/Fc coupled to CM5 chip, 100 nM dAb co-injected with 100 nM DOM23h-437-9 (competitor). The protocol:
as §1
For orientation: In SPR one partner is held on a chip, and binding of the other changes the refractive index at the surface.

Test [5] has the same target. The test is described as follows: SPR (BIACORE 3000), hTGFb-RII/Fc coupled to a CM5 chip, co-inject; injection 1 = DOM23h-437-9 alone at 100 nM. The procedure:
as §1

The target is the same in test [6]. The test is described as follows: SPR (BIACORE 3000), hTGFb-RII/Fc coupled to a CM5 chip, co-inject; injection 1 = DOM23h-437-6 alone at 100 nM. The procedure:
as §1

Test [7] shares this target. The test is described as follows: SPR (BIACORE 3000), hTGFb-RII/Fc coupled to a CM5 chip, co-inject; injection 2 = mixture of DOM23h-437-6 (100 nM) and DOM23h-439-6 (500 nM) on a surface saturated with DOM23h-437-6. The procedure: as §1

human TGF-β receptor type II on human cells (A549, SBE-bla HEK 293T), sequence (P37173 23-567): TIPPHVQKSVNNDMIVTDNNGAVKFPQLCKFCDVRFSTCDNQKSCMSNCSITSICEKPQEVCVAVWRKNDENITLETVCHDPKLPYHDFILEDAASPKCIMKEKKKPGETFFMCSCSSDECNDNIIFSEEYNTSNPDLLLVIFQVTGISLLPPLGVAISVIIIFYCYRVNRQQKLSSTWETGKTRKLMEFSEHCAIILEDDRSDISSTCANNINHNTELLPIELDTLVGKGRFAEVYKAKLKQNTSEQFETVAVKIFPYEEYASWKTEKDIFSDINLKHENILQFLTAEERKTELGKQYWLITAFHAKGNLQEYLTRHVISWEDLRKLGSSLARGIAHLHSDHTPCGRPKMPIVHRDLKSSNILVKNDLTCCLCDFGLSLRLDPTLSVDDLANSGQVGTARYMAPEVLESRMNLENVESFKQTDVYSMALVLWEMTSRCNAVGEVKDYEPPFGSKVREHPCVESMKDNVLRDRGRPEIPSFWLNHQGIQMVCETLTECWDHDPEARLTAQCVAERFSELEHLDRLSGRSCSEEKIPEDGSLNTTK

B1: DOM23h-262-6 (other)
VH: EVQLLESGGGLVQPGGSLRLSCAASGFTFFNYEMAWARQAPGKGLEWVSLISAEGTRTYYANSVKGRFTISRDNSKNTLYLQMNSLRAEDTAVYYCAKRRDASMGHTTRRFDHWGQGTLVTVSS
Consider B1, for which, in test [1], the “potency in the A549 IL-11 release assay relative to DOM23h-262” value was 54 fold.

B2: DOM23h-262 (other)
VH: EVQLLESGGGLVQPGGSLRLSCAASGFTFFNYEMAWARQAPGKGLEWVSLISAEGTRTYYADSVKGRFTISRDNSKNTLYLQMNSLRAEDTAVYYCAKRRDASMGHTTRRFDYWGQGTLVTVSS
notes: Domain antibody (dAb), human immunoglobulin single variable domain, soluble monomer
On to B2, for which the binding result in test [2] was “binds”.

B3: DOM23h-262-10 (other)
VH: EVQLLESGGGLVQPGGSLRLSCAASGFTFFNYEMAWARRAPGKGLEWVSLISADGTRTYYANSVRGRFTISRDNSKNTLYLQMNSLRAEDTAVYYCAKRRDASMGHTTRRFDYSGQGTLVTVSS
With B3, in test [1], the “potency in the A549 IL-11 release assay relative to DOM23h-262” value is 540 fold.

B4: DOM23h-271-3 (other)
VH: EVQLLESGGGLVQPGGSLRLSCTASGFTFTEYRMWWVRQAPGKGLEWVSLIEPIGNRTYYADSVKGRFTISRDNSKNTLYLQMNSLRAEDTAVYYCAKQIPGHMWTANPRSDYWGQGTQVTVSS
notes: VH dAb
Take B4: in test [3], the binding result is on record as “binds”.

B5: DOM23h-271-12 (other)
VH: EVQLLESGGGLVQPGGSLRLSCTASGFTFTEYRMWWVRQAPGKGLEWVSLIEPIGNRTYYANSVRGRFTISRDNSKNTLYLQMNSLRAEDTAVYYCAKQIPGHMWTANPRSDYWGQGTQVTVSS
notes: VH dAb; also called DOM23h-271-3 + D61N + K64R
In the case of B5, the binding result in test [4] is “binds”.

B6: DOM23h-271 (other)
VH: EVQLLESGGGLVQPGGSLRLSCAASGFTFTEYRMWWVRQAPGKGLEWVSSIEPIGNRTYYADSVKGRFTISRDNSKNTLYLQMNSLRAEDTAVYYCAKQIPGHKWTANSRFDYWGQGTLVTVSS
notes: VH dAb
On to B6, for which the binding result in test [2] is “binds”.

B7: DOM23h-348 (other)
chain: EVQLLESGGGLVQPGGSLRLSCAASGFTFSDYDMAWARQAPGKGLEWVSRISHSGYSTYYADSVKGRFTISRDNSKNTLYLQMNSLRAEDTAVYYCAKRSWDGVHAQFDYWGQGTLVTVSS
notes: Naive dAb
Consider B7, for which the binding result in test [2] is “binds”.

B8: DOM23h-437 (other)
VH: EVQLLESGGGLVQPGGSLRLSCAASGFTFSDYRMWWVRQAPGKGLEWVSAIDSQGHTTYYADSVKGRFTISRDNSKNTLYLQMNSLRAEDTAVYYCAKYGGYFDYWGQGTLVTVSS
notes: VH dAb
B8: the binding result in test [2] is “binds”.

B9: DOM23h-437-9 (other)
VH: EVQLLESGGGLVQPGGSLRLSCATSGFTFSDYRMWWVRQAPGKGLEWVSAIDSQGHTTYYANSVRGRFTISRDNSKNTLYLQMNSLRAEDTAVYYCAKYGGYFDYWGQGTLVTVSS
notes: VH dAb; also called DOM437-9
For the molecule B9, in test [5], the binding result is listed as “binds”.

B10: DOM23h-437-6 (other)
VH: EVQLLESGGGLVQPGGSLRLSCATSGFTFSDYRMWWVRQAPGKGLEWVSAIDSQGHTTYYADSVKGRFTISRDNSKNTLYLQMNSLRAEDTAVYYCAKYGGYFDYWGQGTLVTVSS
notes: VH dAb
Regarding B10, in test [6], the binding result is listed as “binds”.

B11: DOM23h-251 (other)
chain: EVQLLESGGGLVQPGGSLRLSCAASGFTFSDYDMWWVRQAPGKGLEWVSKITQKGDFTYYADSVKGRFTISRDNSKNTLYLQMNSLRAEDTAVYYCAKDATHFDYWGQGTLVTVSS
notes: Naive dAb
On to B11, for which the binding result in test [2] is listed as “binds”.

B12: DOM23h-435 (other)
chain: EVQLLESGGGLVQPGGSLRLTCAASGFTFTDDRMWWVRQAPGKGLEWVSAIDPQGQHTYYADSVKGRFTISRDNSKNTLYLQMNSLRAEDTAVYYCAKHNSSFDYWGQGTLVTVSS
notes: Naive dAb
As for B12, in test [2], the binding result was “binds”.

B13: DOM23h-436 (other)
chain: EVQLLESGGGLVQPGGSLRLSCAASGFTFSDYKMGWVRQAPGKGLEWVSSIWPNGGLTYYADSVKGRFTISRDNSKNTLYLQMNSLRAEDTAVYYCAKDHMGFDYWGQGTLVTVSS
notes: Naive dAb
For B13, in test [2], the binding result is “binds”.

B14: DOM23h-440 (other)
chain: EVQLLESGGGLVQPGGSLRLSCAASGFTFTDDRMWWVRQAPGKGLEWVSAIDPQGQHTYYADSVKGRFTISRDNSKNTLYLQMNSLRAEDTAVYYCAKELLSFDYWGQGTLVTVSS
notes: Naive dAb
For the molecule B14, the binding result in test [2] is “binds”.

B15: DOM23h-33 (other)
chain: EVQLLESGGGLVQPGGSLRLSCAASGFTFSQYRMWWVRQAPGKGLEWVSAIAPSGDNTYYADSVKGRFTISRDNSKNTLYLQMNSLRAEDTAVYYCAKHRTSFDYWGQGTLVTVSS
notes: Naive dAb (immunoglobulin single variable domain)
On to B15, for which the binding result in test [2] is reported as “binds”.

B16: DOM23h-439-6 (other)
VH: EVQLLESGGGLVRPGGSLRLSCAASGFTFGTEQMWWVRQAPGKGLEWVSRIDSPGGRTYYADSVRGRFTISRDNSKNTLYLQMNSLRAEDTAVYYCAKRHAAGVSGTYFDYWGQGTLVTVSS
notes: VH dAb, already contains K64R
In the case of B16, the binding result in test [7] was “binds”.

B17: DOM23h-439-8 (other)
VH: EVQLLESGGGLVRPGGSLRLSCAASGFTFGTEQMWWVRQAPGKGLEWVSRIDSPGGRTYYANSVRGRFTISRDNSKNTLYLQMNSLRAEDTAVYYCAKRHAAGVSGTYFDYWGQGTLVTVSS
notes: VH dAb; also called DM23h-439-8; DOM23h-439-6 + D61N + K64R
In the case of B17, the binding result in test [4] is listed as “binds”.

B18: DOM23h-439 (other)
VH: EVQLLESGGGLVQPGGSLRLSCAASGFTFGTEQMWWVRQAPGKGLEWVSRIDSPGGRTYYADSVKGRFTISRDNSKNTLYLQMNSLRAEDTAVYYCAKRHAAGVSGTYFDYWGQGTLVTVSS
notes: VH dAb
Turning to B18, in test [2], the binding result is listed as “binds”.

B19: DOM23h-438 (other)
chain: EVQLLESGGGLVQPGGSLRLSCAASGFTFAQGDMWWVRQAPGKGLEWVSRIGMDGDKTYYADSVKGRFTISRDNSKNTLYLQMNSLRAEDTAVYYCAKGPSSTSPFDYWGQGTLVTVSS
notes: Naive dAb
For the molecule B19, the binding result in test [2] is reported as “binds”.
